The supplement of paper PMC10065799, “High-throughput profiling of sequence recognition by tyrosine kinases and SH2 domains using bacterial peptide display” (eLife, 2023)

Assays:
AncSZ = assay: phosphorylation enrichment, bacterial display (enrichment ratio); higher = better substrate or ligand; peptides without Tyr show the background
EPHB1 = EPHB1 (UniProt P54762); assay: as above
EPHB2 = EPHB2 (UniProt P29323); assay: as above
FGFR1 = FGFR1 (UniProt P11362); assay: as above
FGFR3 = FGFR3 (UniProt P22607); assay: as above
Fer (mouse) = assay: as above
Fes = Fes (UniProt P07332); assay: as above
Fyn = Fyn (UniProt P06241); assay: as above
Hck = Hck (UniProt P08631); assay: as above
Hck, sequence (P08631 whole entry, looked up): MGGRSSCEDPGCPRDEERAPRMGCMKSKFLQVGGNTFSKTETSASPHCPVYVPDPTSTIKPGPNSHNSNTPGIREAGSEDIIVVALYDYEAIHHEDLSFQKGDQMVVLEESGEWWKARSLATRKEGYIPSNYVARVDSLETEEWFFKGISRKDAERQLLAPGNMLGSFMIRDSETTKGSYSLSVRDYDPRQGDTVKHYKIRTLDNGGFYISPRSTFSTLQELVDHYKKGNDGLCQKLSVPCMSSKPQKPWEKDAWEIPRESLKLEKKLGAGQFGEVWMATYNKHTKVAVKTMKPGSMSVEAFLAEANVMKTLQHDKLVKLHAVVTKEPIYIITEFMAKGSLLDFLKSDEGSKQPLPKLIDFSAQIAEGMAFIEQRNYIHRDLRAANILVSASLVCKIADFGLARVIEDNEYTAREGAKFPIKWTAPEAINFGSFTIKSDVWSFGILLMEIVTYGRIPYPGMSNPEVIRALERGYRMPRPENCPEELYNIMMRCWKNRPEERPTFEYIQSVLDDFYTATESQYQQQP

Jak2 = Jak2 (UniProt O60674); assay: as above
Jak2, sequence (O60674 whole entry, looked up): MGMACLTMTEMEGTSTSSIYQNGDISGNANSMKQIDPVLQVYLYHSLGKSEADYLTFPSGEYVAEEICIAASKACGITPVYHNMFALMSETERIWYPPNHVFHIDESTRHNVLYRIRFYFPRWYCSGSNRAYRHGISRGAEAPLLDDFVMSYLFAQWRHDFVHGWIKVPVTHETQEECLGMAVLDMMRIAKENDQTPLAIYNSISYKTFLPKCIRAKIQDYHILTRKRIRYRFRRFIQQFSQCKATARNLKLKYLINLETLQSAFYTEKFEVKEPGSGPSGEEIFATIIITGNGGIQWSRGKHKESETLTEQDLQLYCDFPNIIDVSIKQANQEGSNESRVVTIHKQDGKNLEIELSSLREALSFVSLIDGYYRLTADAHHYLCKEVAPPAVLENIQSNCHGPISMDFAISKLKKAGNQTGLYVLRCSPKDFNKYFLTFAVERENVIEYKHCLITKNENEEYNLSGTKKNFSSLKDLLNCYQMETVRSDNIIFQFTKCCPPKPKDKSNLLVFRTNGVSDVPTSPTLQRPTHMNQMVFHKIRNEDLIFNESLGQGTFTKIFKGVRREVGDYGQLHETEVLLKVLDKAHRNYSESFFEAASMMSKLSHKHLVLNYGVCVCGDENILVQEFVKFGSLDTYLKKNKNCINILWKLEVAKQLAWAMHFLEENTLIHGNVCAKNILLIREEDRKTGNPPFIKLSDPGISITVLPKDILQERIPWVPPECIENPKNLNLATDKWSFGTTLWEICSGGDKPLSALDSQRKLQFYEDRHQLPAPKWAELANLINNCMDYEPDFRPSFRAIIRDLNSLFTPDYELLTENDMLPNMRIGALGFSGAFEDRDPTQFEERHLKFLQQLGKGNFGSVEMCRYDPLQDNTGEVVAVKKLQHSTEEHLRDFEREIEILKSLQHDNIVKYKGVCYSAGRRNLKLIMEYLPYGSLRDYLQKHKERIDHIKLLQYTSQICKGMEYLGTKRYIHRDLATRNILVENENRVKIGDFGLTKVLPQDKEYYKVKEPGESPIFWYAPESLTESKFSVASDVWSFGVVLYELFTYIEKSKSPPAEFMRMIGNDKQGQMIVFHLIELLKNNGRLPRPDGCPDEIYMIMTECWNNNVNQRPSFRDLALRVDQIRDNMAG

MERTK = MERTK (UniProt Q12866); assay: as above
MERTK, sequence (Q12866 whole entry, looked up): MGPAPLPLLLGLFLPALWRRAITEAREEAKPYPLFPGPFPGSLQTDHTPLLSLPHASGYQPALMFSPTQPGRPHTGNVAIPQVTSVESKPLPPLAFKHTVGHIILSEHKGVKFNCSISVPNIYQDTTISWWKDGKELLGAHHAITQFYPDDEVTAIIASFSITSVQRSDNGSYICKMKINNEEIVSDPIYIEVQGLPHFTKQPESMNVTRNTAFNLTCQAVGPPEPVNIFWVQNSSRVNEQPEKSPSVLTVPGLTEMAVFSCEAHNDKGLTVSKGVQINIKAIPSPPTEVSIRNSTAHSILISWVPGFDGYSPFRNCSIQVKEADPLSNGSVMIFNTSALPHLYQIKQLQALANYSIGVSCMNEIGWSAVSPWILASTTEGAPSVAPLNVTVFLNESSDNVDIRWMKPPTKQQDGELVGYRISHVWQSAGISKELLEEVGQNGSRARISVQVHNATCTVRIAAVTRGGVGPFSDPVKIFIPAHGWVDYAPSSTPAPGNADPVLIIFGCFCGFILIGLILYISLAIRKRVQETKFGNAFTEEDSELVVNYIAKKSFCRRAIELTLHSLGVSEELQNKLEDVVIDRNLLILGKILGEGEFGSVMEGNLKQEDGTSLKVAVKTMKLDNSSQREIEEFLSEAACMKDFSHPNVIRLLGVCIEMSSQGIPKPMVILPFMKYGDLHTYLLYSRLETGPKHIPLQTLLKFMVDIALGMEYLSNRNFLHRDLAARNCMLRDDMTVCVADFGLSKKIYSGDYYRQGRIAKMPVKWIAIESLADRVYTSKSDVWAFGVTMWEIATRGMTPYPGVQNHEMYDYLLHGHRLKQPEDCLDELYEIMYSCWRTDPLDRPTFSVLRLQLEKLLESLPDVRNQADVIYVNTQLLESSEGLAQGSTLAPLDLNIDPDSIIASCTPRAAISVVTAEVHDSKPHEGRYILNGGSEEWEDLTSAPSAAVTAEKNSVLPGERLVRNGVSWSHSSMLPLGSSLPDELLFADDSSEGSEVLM

c-Abl (mouse) = assay: as above
c-Src = assay: as above
Grb2 SH2 = Grb2 SH2 (UniProt P62993); assay: SH2 binding enrichment of the phosphorylated peptide, bacterial display (enrichment ratio); higher = better substrate or ligand; peptides without Tyr show the background
Grb2 SH2, sequence (P62993 whole entry, looked up): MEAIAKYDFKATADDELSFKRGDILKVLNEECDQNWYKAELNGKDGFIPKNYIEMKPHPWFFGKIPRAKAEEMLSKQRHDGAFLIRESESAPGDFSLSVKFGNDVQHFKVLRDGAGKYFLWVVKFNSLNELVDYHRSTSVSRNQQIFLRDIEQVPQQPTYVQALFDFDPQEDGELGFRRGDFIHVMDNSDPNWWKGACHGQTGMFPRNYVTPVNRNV

SHP2-C SH2 = assay: as above
c-Src SH2 = assay: as above
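Throughout, for SH2 binding enrichment of the phosphorylated peptide, bacterial display: peptide library displayed on the E. coli surface as eCPX fusions, selected cells deep-sequenced, score is each peptide's frequency after selection divided by its frequency in the input.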
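Throughout, for phosphorylation enrichment, bacterial display: 11-residue human phosphosite peptides and single-mutation variants displayed on the E. coli surface, counted by deep sequencing, each peptide's frequency after selection divided by its frequency in the unselected input library; frequency after pTyr selection over input frequency; kinase dosed for 20-30% of maximal phosphorylation in three min.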

FGFR1, sequence (P11362 whole entry, looked up): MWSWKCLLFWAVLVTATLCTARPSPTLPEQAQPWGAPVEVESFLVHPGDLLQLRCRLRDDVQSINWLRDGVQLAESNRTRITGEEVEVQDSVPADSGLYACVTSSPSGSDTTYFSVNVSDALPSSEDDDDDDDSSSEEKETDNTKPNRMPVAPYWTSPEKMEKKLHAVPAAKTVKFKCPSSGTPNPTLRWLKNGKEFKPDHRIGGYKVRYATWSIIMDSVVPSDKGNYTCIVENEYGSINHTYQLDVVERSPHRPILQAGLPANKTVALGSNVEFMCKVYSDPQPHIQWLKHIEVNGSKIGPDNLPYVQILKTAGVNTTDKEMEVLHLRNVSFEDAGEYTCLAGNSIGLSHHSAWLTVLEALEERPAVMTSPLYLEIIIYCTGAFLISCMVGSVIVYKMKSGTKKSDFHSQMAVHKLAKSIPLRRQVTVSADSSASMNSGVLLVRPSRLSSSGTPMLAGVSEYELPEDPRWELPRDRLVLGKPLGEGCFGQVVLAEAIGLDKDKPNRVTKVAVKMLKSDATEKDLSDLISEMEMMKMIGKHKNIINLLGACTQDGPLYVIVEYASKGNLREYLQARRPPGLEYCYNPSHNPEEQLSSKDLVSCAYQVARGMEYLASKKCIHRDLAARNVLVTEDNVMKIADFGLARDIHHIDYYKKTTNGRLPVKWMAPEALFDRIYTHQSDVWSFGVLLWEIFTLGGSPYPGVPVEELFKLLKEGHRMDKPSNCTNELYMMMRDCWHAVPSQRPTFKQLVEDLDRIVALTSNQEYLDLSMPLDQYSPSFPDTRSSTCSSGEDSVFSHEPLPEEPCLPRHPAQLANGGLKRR
EPHB2, sequence (P29323 whole entry, looked up): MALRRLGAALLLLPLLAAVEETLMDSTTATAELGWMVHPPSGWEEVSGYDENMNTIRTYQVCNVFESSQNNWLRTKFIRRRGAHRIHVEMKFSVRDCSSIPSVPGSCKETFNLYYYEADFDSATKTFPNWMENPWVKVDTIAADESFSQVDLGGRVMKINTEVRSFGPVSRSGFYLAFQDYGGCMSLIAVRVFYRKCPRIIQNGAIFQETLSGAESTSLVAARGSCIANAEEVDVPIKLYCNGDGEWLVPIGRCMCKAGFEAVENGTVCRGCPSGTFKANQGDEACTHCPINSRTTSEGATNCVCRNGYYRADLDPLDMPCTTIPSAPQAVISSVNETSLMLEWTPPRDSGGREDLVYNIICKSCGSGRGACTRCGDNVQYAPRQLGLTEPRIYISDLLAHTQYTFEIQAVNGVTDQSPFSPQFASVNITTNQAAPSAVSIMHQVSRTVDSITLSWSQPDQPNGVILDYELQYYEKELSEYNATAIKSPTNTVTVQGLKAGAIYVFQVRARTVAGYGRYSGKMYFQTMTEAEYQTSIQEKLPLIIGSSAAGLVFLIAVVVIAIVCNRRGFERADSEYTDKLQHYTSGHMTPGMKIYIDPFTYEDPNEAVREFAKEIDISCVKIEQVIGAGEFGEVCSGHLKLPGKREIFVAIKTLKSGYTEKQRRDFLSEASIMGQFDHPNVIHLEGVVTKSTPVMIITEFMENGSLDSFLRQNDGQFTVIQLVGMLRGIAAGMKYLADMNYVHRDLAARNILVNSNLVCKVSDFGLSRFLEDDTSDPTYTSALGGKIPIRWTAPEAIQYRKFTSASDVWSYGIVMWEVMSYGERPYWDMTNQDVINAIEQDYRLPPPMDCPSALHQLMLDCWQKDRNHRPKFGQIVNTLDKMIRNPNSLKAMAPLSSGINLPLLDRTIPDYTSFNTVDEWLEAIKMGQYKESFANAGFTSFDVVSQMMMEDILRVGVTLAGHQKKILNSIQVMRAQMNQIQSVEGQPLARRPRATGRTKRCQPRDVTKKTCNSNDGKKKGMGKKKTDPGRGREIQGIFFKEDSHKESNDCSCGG

Row | Sequence | phosphorylation enrichment (AncSZ) | phosphorylation enrichment (EPHB1) | phosphorylation enrichment (EPHB2) | phosphorylation enrichment (FGFR1) | phosphorylation enrichment (FGFR3) | phosphorylation enrichment (Fer (mouse)) | phosphorylation enrichment (Fes) | phosphorylation enrichment (Fyn) | phosphorylation enrichment (Hck) | phosphorylation enrichment (Jak2) | phosphorylation enrichment (MERTK) | phosphorylation enrichment (c-Abl (mouse)) | phosphorylation enrichment (c-Src) | SH2 binding enrichment (Grb2 SH2) | SH2 binding enrichment (SHP2-C SH2) | SH2 binding enrichment (c-Src SH2)
1 | PPNSPYIGSSP [KCNT1_Y740] | 0.501 | 0.493 | 0.468 | 0.537 | 0.362 | 0.382 | 0.557 | 0.464 | 0.457 | 0.417 | 0.422 | 0.572 | 0.352 | 0.783 | 0.557 | 0.371
2 | PPNSPYMGSSP [KCNT1_Y740_I741M] | 1.01 | 0.497 | 0.536 | 0.632 | 0.818 | 0.612 | 0.868 | 0.546 | 0.521 | 0.825 | 0.468 | 0.782 | 0.59 | 0.869 | 0.759 | 0.481
3 | PPSELYFVKVD [TERT_Y707_P704S] | 1.19 | 0.699 | 0.965 | 0.815 | 0.92 | 0.815 | 1.63 | 0.784 | 1.95 | 0.925 | 1.82 | 0.733 | 1.26 | 0.614 | 0.679 | 0.405
4 | PPSLSYLSFEG [EXOSC3_Y143_A139P] | 0.756 | 0.556 | 0.448 | 0.595 | 0.713 | 0.451 | 0.886 | 0.464 | 0.517 | 1.36 | 0.602 | 0.702 | 1.1 | 1.07 | 0.814 | 0.504
5 | PPVVNYEEDAR [FER_Y402] | 1.26 | 0.957 | 0.892 | 0.569 | 0.968 | 0.585 | 1.86 | 0.896 | 0.64 | 1.4 | 0.856 | 0.824 | 0.534 | 0.745 | 1.01 | 0.806
6 | PRIKTYMRPSP [TDP1_Y497_H493R] | 0.493 | 0.317 | 0.465 | 0.451 | 0.522 | 0.378 | 0.65 | 0.366 | 0.36 | 0.49 | 0.44 | 0.425 | 0.474 | 1.04 | 0.948 | 0.842
7 | PSARTYCFKQE [KLHDC9_Y175_YF] | 0.743 | 0.386 | 0.595 | 0.469 | 0.571 | 0.415 | 0.802 | 0.622 | 0.413 | 0.624 | 0.429 | 0.491 | 0.494 | 0.944 | 0.622 | 0.632
8 | PSGPAYRGAVP [ASAH1_Y43_T42A] | 0.664 | 0.74 | 0.431 | 0.809 | 0.423 | 0.533 | 0.759 | 0.539 | 0.459 | 0.736 | 0.476 | 0.758 | 0.506 | 0.72 | 0.455 | 0.49
9 | PSPMPYAFCQM [FOXL2_Y215_S217F] | 1.87 | 1.3 | 1.28 | 2.61 | 2.31 | 9.08 | 2.17 | 0.706 | 0.934 | 1.75 | 1.41 | 1.44 | 1.99 | 0.64 | 0.774 | 1.7
10 | PSRKDYETYQS [CTNND2_Y1154_P1159S] | 0.875 | 0.827 | 1.03 | 0.539 | 0.704 | 0.55 | 1.17 | 0.543 | 0.764 | 0.94 | 0.474 | 0.729 | 0.948 | 0.976 | 0.899 | 0.746
11 | PTDCVYVMPTV [MYO7A_Y1668_S1666C] | 5.31 | 3.34 | 2.4 | 5 | 3.92 | 1.08 | 1.06 | 8.41 | 4.49 | 1.1 | 6.63 | 7.37 | 4.95 | 1.01 | 0.716 | 0.642
12 | PTDSVYVMPTV [MYO7A_Y1668] | 2.78 | 1.15 | 0.708 | 2.32 | 1.68 | 0.77 | 0.926 | 8.58 | 3.43 | 0.827 | 8.35 | 3.01 | 4.43 | 0.911 | 0.683 | 0.429
13 | PTKNDYWAMLA [WWOX_Y287] | 1.64 | 1.78 | 1.61 | 7.82 | 4.3 | 0.447 | 1.5 | 0.695 | 0.705 | 1.12 | 0.443 | 0.939 | 0.912 | 1.07 | 0.617 | 0.721
14 | PTTKTYFPHFA [HBA1_Y43_D48A] | 0.796 | 0.572 | 0.386 | 0.313 | 0.599 | 0.384 | 0.724 | 0.798 | 0.754 | 0.469 | 0.675 | 0.646 | 0.781 | 0.714 | 0.734 | 0.496
15 | PTYENYANSTQ [SLC12A3_Y70_H69N] | 1.06 | 4.39 | 3.36 | 0.593 | 0.555 | 0.69 | 0.743 | 4.03 | 2.12 | 0.518 | 0.927 | 0.418 | 5.43 | 19.9 | 0.728 | 2.96
16 | PVADPYDQSFE [MAPK14_Y323] | 1.66 | 0.695 | 0.632 | 0.941 | 0.896 | 0.759 | 1.86 | 0.828 | 0.989 | 2.29 | 0.894 | 2.38 | 0.982 | 0.927 | 0.797 | 0.971
17 | PVDVAYRHGFF [PLEC_Y2967_R2969H_YF] | 0.482 | 0.32 | 0.268 | 0.574 | 0.458 | 0.342 | 0.85 | 0.324 | 0.553 | 0.511 | 0.366 | 0.473 | 0.325 | 0.722 | 0.576 | 0.552
